Assay results from patent US12648946B2, “Combination of antibody-pyrrolobenzodiazepine derivative conjugate and PARP inhibitor” (DAIICHI SANKYO COMPANY, LIMITED, priority 2019, dated 2026).

Key:
[1] = molecular target: T1, human claudin-6 (Homo sapiens, UniProt P56747); experiment: FACS analysis of hybridoma antibodies on claudin-6 forced-expression cells; assay type: binding; settings: human claudin-6-expressing CHO-K1 cells, cDNA transfection
T1 construct: expressed in transfected cells; host or cells: CHO-K1 cells
T1 sequence (P56747 1-220): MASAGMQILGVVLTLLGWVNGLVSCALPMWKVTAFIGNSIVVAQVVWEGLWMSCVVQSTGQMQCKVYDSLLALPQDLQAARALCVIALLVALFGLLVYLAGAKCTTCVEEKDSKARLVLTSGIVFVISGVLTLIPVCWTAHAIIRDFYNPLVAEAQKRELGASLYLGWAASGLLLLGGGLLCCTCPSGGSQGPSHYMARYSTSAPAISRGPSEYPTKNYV
Procedure: Since the antigen for the 218B1 antibody and 218C7 antibody was estimated to be claudin-6 from the mass spectrometry, forced expression analysis by cDNA transfection was carried out.

[2] = test system: BxPC-3, human pancreatic cancer cell line of human CLDN6-negative cells; experiment: Internalization activity of antibodies (Mab-ZAP, CellTiter-Glo); assay type: cell-based; settings: antibody 1 nM with Mab-ZAP 0.5 nM, 5 days
Procedure: (§1) Internalization activity of the mouse anti-CLDN6 antibodies B1 and C7 was evaluated by using the anti-mouse IgG reagent, to which a toxin that inhibits protein synthesis (saporin) had been conjugated, Mab-ZAP (Advanced Targeting Systems). In this evaluation, Mab-ZAP is incorporated into cells in a manner depending on the internalization activity of a mouse anti-CLDN6 antibody, and saporin, which inhibits protein synthesis, is released in the cells to suppress cell growth.
(§2) JEG-3 (ATCC HTB-36), a human choriocarcinoma cell line of human CLDN6-positive cells, NIH: OVCAR-3 (ATCC HTB-161), a human ovarian cancer cell line of human CLDN6-positive cells, or BxPC-3 (ATCC CRL-1687), a human pancreatic cancer cell line of human CLDN6-negative cells, was seeded in a 96-well cell culture microplate at 2×10^3 cells/well, and cultured under conditions of 37° C. and 5% CO2 overnight. On the next day, a mixed solution obtained by mixing each mouse anti-CLDN6 antibody or mouse IgG1 antibody (R&D Systems, Inc.) to a final concentration of 1 nM, with Mab-ZAP (final concentration: 0.5 nM) or AffiniPure Goat Anti-Mouse IgG, Fcγ Fragment Specific (Jackson ImmunoResearch Laboratories Inc.) (final concentration: 0.5 nM), without conjugated toxin, was added, and the cells were cultured under conditions of 37° C. and 5% CO2 for 5 days. The number of surviving cells was determined through quantification of ATP activity by using CellTiter-Glo Luminescent Cell Viability Assay (Promega Corporation).

[3] = test system: JEG-3, human choriocarcinoma cell line of human CLDN6-positive cells; experiment: as above; assay type: cell-based; settings: antibody 1 nM with Mab-ZAP 0.5 nM, 5 days
Procedure: as §1, §2

[4] = test system: NIH: OVCAR-3, human ovarian cancer cell line of human CLDN6-positive cells; experiment: as above; assay type: cell-based; settings: antibody 1 nM with Mab-ZAP 0.5 nM, 5 days
Procedure: as §1, §2

FACS reaction [1]: strong positive reaction
B1: C7: mouse anti-CLDN6 antibody from hybridoma 218C7; heavy chain variable region SEQ ID NO: 25, light chain SEQ ID NO: 23 (antibody, listed as Mus musculus, V domains shown)
VH: EVQLQQSGPELVKPGASVKISCKTSGYTFTEYTMHWVQQSHGKSLEWIGGVNPNSGDTSYNQKFKGKATLTVDKSSSTAYMELRSLTSEDSAVYYCARPGGYDVGYYAMDYWGQGTSVTVSS
VL: DIQMTQTASSLSASLGDRVTISCRASQDINNYLNWYQQKPDGTVKLLIYSTSRLHSGVPSRFSGSGSGTHYSLTITHLEQEDIATYFCQQGYPLPWTFGGGTKLEIK
modifications: amino acid sequence of variable region of C7 antibody heavy chain; amino acid sequence of variable region of C7 antibody light chain
Cell growth-suppressing effect (internalization activity) [2]: no cell growth-suppressing effect
Cell growth-suppressing effect (internalization activity) [3]: cell growth-suppressing effect
Cell growth-suppressing effect (internalization activity) [4]: cell growth-suppressing effect
